The record followed here is patent US20040202665A1, “Compositions and methods for therapeutic treatment” (priority 2002, published 2004).

Experiment [1] deals with MOLT-4 (T leukemia) cells. The experiment can be described thus: Survival of MOLT-4 tumor-bearing mice after doxorubicin and Y1. In kind it is in vivo. As to conditions: MOLT-4 tumor-bearing SCID mice; for survival of tumor-bearing mice (FIG. 1): 2 mg Dox/kg i.v. 1x/wk and/or 0.1 mg Y1 scFv/mouse i.v. 3x/wk, relative to control. The method, then: The present example examines the interaction between chemotherapy treatment and Y1 in the MOLT-4 tumor-bearing mice.
Initially, SCID mice (Jackson) were pretreated with 100 mg/kg CTX (Cytoxan-cyclophosphamid for injection, Mead Johnson). Five days after CTX injection, MOLT-4 (T leukemia) cells were inoculated intravenously (i.v.) through the tail vein with 2×10^7 cells. Mice were randomly divided into 5 treatment groups (13 per group), and they were treated, beginning 5 days after cell inoculation, as indicated in the table below. Tumor-bearing mice were treated for two weeks with sub-optimal dose of doxorubicin (Dox), in combination with Y1 given either concomitantly or after the Dox course of treatment. The response to the therapies was monitored as survival. As described above, the experimental groups were as follows: […]

For experiment [2], the system named is platelets. The experiment can be described thus: Platelet aggregation. Format: cell-based.
Experiment [3] relates to platelets. The experiment can be described thus: Binding to platelets.
The subject of another experiment is leukemic cells. Briefly: Binding to leukemic cells.
In experiment [4] the test system is primary leukemia cells derived from either AML or multiple myeloma (MM) patients. The experiment can be described thus: Affinity of Y1 to primary leukemia cells. Format: binding.

For the molecule `COc1cccc2c1C(=O)c1c(O)c3c(c(O)c1C2=O)C[C@@](O)(C(=O)CO)C[C@@H]3O[C@H]1C[C@H](N)[C@H](O)[C@H](C)O1` [Dox, doxorubicin], in experiment [1], the “survival of tumor-bearing mice (FIG. 1)” value is given as “negative effect”. Also, in experiment [1] (sub-optimal dose 2 mg Dox/kg i.v., 2 doses, 1x/wk, beginning day 5 post inoculation, control 39.08±0.8 days), the “mean survival time (MST)” value turned out to be 33.5 ± 1.68 days.

B1: L32: scFv antibody fragment of SEQ ID NO:3, screened against a leukemia cell (protein, listed as Homo sapiens)
scFv: MKYLLPTAAAGLLLLAAQPAMAEVQLVESGGGVVRPGGSLRLSCAASGFTFDLNPKVKHMWVRQAPGKGLEWVSGINWNGGSTGYADSVKGRFTISRDNAKNSLYLQMNSERAEDTAVYYCARMRAPVIWGQGTLVTVSRGGGGSGGGGSGGGGSSELTQDPAVSVALGQTVRITCQGDSLRSYYASWYQQKPGQAPVLVIYGKNNRPSGIPDRFSGSSSGNTASLTITGAQAEDEADYYCNSRDSSGNHVVFGGGTKLTVLGAAAEQKLISEEDLNGAA
B1: the “effect on platelet aggregation” value with platelets [2] is reported as “does not affect platelet aggregation”. In addition, the binding to platelets result in the experiment on platelets [3] is on record as “does not bind platelets”. Besides, in the experiment on leukemic cells, the “affinity of binding to leukemic cells relative to Y1” value was “approximately five times greater affinity than Y1”.

B2: Y1: human scFv antibody fragment of SEQ ID NO: 1, selected from a phage library on fixed human platelets (protein, listed as Homo sapiens)
scFv: MKYLLPTAAAGLLLLAAQPAMAEVQLVESGGGVVRPGGSLRLSCAASGFSFDDYGMSWVRQAPGKGLEWVSGINWNGGSTGYADSVKGRFTISRDNAKNSLYLQMNSLRAEDTAVYYCARMRAPVIWGQGTLVTVSRGGGGSGGGGSGGGGSSELTQDPAVSVALGQTVRITCQGDSLRSYYASWYQQKPGQAPVLVIYGKNNRPSGIPDRFSGSSSGNTASLTITGAQAEDEADYYCNSRDSSGNHVVFGGGTKLTVLGAAAEQKLISEEDLNGAA
For B2, the “survival of tumor-bearing mice (FIG. 1)” value in experiment [1] is recorded as “dramatic effect”. Moreover, the “affinity to primary leukemia cells relative to glycocalicin, fibrinogen-gamma prime, complement compound 4 and PSGL-1 epitopes” value in experiment [4] is recorded as “several magnitudes higher”.
